Results on five molecules are retold here after US20180185504A1 (Regeneron, published 2018).

Positions count from the first letter of the chain named. Names may count otherwise.

Assay [1] has as its target T1, human PRLR on cells (endogenous on T47D, T47D#11, MCF7); introduced in HEK293/hPRLR/STAT5-Luc, 293/hPRLR, … (human, UniProt P16471 25-622).
T1 construct: no tag is stated for these lines; also called prolactin receptor
T1 sequence: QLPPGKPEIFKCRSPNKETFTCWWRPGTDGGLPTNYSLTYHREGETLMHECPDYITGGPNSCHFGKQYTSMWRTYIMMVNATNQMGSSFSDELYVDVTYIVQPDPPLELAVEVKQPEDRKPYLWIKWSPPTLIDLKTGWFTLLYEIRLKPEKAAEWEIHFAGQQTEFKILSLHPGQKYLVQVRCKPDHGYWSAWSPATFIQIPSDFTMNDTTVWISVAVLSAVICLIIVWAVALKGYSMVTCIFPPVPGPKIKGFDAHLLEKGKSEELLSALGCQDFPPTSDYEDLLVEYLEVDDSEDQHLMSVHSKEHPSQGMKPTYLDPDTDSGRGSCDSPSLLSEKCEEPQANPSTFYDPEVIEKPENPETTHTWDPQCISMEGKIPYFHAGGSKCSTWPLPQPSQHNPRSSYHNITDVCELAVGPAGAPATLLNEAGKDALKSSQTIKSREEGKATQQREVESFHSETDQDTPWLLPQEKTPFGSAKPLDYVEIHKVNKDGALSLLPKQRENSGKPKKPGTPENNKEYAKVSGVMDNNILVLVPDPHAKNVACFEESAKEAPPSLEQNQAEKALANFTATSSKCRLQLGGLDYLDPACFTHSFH
As to the kind of experiment: FACS on T47D cells.

Assay [2] has as its target T1, human PRLR on cells (endogenous on …). Nature of the assay: cell-based or functional assay.
Assay [3] has the same target. Nature of the assay: cell-based or functional assay. The source holds these as a separate data set.
The target of assay [4] is T2, hPRLR.mmh (soluble monomeric human PRLR) (human).
T2 construct: soluble monomeric PRLR protein
T2 chain: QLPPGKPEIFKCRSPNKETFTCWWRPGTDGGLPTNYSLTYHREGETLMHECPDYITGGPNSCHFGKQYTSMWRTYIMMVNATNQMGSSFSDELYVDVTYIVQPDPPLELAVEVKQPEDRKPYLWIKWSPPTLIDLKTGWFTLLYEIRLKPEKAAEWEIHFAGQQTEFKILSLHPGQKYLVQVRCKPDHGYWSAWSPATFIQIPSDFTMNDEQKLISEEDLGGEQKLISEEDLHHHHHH
As to the kind of experiment: SPR (Biacore), antibody capture, 37 C. How it is done: (§1) Measurements were conducted on a T200 Biacore instrument. Kinetic association (kₐ) and dissociation (kd) rate constants were determined by processing and fitting the data to a 1:1 binding model using Scrubber 2.0 curve fitting software.
In general terms: In SPR one partner is held on a chip, and binding of the other changes the refractive index at the surface.

The target of assay [5] is T3, hPRLR.mFc (soluble dimeric human PRLR) (human).
T3 construct: dimeric PRLR construct
T3 chain: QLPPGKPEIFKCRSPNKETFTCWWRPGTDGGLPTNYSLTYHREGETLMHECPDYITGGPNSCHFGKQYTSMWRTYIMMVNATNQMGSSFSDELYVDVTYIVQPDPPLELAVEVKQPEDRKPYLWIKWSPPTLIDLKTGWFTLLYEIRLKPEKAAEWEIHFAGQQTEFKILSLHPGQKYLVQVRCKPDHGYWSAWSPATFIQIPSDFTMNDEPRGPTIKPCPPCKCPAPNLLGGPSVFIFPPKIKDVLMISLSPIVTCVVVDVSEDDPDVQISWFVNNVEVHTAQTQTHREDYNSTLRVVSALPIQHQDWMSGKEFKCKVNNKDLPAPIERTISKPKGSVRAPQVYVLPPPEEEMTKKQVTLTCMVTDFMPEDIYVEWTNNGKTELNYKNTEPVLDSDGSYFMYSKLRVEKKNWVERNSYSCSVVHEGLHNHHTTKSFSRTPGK
As to the kind of experiment: SPR (Biacore), antibody capture, 37 C. How it is done:
as §1

The target of assay [6] is T4, mfPRLR.mmh (soluble monomeric macaca fascicularis PRLR) (macaca fascicularis).
T4 construct: soluble monomeric PRLR protein; also called macaca fascicularis (mf) PRLR.mmh; monkey PRLR
T4 chain: T2 chain with I76V, A110T, I125M, I158T, T207I
As to the kind of experiment: SPR (Biacore), antibody capture, 37 C. How it is done: as §1

For assay [7], the target named is T1, human PRLR on cells (endogenous on …). Nature of the assay: imaging of alexa488 intensity on T47D cells. The procedure, abridged: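 T47D cells labelled on ice with alexa488 anti-hFc Fab secondary for 30 min, then held 1 h at 37 °C in PBS+2% FBS or at 4 °C. After fixation and DRAQ5 staining, whole-cell (binding) and intracellular-vesicle (internalization) alexa488 intensities at 37 °C quantified by imaging.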

B1: H1H6781P (antibody, human IgG1, V domains shown)
VH: EVQLVESGGDLVQPGESLRLSCTASGFTFNSYEMNWVRQAPGKGLEWVSYISSSGGTKYYVDSVKGRFTISRDNAKKSLYLQMNSLRADDTALYYCARLNGVDVFDIWGQGTMVTVSS
VL: DIQMTQSPSSLSASVGDRVTITCRASQDIFNYLAWFQQKPGKVPELLISAASTLQSGVPSRFSGSGSGTYFTLTISSLQPEDIATYYCQRYNSAPLTFGGGTKVEIK
notes: human IgG1 Fc (H1H)
One may read the Kd as the constant that tells how readily two partners part at equilibrium. Read a high Kd as weaker binding. As a reminder, the koff is the rate constant with which the complex falls apart. The kon is a measure of how fast the partners come together. Higher therefore signals fast association. In the case of B1, in assay [1], the “FACS Cell Binding (Fold Above Background)” value was 40 fold. The “% Internalization relative to Control I (T47D cells, imaging)” value (“% Internalization relative to Control I” below) in assay [2] stood at 165%. In addition, in assay [3], the “IC50 of Blocking 5 nM PRL [M] (STAT5-Luc reporter, HEK293/hPRLR/STAT5-Luc cells)” value was found to be 2.7e-11 M and the “Percent Blocking at 100 nM Antibody (STAT5-Luc reporter)” value (“Percent Blocking at 100 nM Antibody” for short) is 100%. In assay [4], the dissociation constant (Kd) is 0.91 nM, the “T 1/2” value is 37 min, the koff worked out at 0.000309 s⁻¹ and the on-rate (kon) is 339000 M⁻¹ s⁻¹. For the same molecule, in assay [5], binding was characterised by a dissociation constant (Kd) of 0.226 nM, the “T 1/2” value stood at 117 min, the koff worked out at 9.84e-05 s⁻¹ and the on-rate (kon) turned out to be 436000 M⁻¹ s⁻¹. Also, in assay [6], the Kd turned out to be 1.08 nM, the “T 1/2” value came to 43 min, the off-rate constant (koff) is 0.000267 s⁻¹ and the association rate constant (kon) is 247000 M⁻¹ s⁻¹. Further, the “% Total Binding relative to Control I” value in assay [7] was determined as 166%.

B2: H1H6783P (antibody, human IgG1, V domains shown)
VH: QVQLQQSGPGLVKPSQTLSLTCAISGDSVSSNTFAWNWIRQSPSRGLEWLGRTYYRSKWYIDYAESVKSRITITPDTSKNQFSLQLNSVTPEDTALYYCAGGYTYAPRGAFDIWGQGTMVTVSS
VL: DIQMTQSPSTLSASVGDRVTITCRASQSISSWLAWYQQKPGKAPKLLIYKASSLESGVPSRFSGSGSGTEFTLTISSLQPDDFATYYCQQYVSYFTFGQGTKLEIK
notes: human IgG1 Fc (H1H)
B2: in assay [1], the “FACS Cell Binding (Fold Above Background)” value is 38 fold. Besides, the “% Internalization relative to Control I” value in assay [2] came to 161%. Also, the “Percent Blocking at 100 nM Antibody” value in assay [3] stood at 59%. In addition, in assay [4], binding was put at a Kd of 3.91 nM, the “T 1/2” value was found to be 7 min, the koff turned out to be 0.00161 s⁻¹ and the kon came to 411000 M⁻¹ s⁻¹. Besides, in assay [5], the Kd is 0.282 nM, the “T 1/2” value was determined as 83 min, the koff is 0.000138 s⁻¹ and the on-rate (kon) is 491000 M⁻¹ s⁻¹. For the same molecule, in assay [6], binding was characterised by a dissociation constant (Kd) of 4.74 nM, the “T 1/2” value was 9 min, the off-rate (koff) turned out to be 0.0013 s⁻¹ and the on-rate (kon) was 273000 M⁻¹ s⁻¹. In assay [7], the “% Total Binding relative to Control I” value came to 166%.

B3: H1H6967N (antibody, human IgG1, V domains shown)
VH: EVQLVESGGDLVHPGRSLRLSCAASGFPFDEYAMHWVRQVPGKGLEWVSGISWSNNNIGYADSVKGRFTISRDNAKNSLYLQMNSLRPEDTAFYYCAKSGIFDSWGQGTLVTVSS
VL: EIVMTQSPATLSVSPGERATLSCRASQSVSRDLAWYQQKPGQAPRLLIHGASTRATGIPARFSGSGSGAEFTLIISSLQSEDFAVYYCQQYNNWPLTFGGGTKVEIK
notes: also called H2M6967N
For B3, the “FACS Cell Binding (Fold Above Background)” value in assay [1] turned out to be 41 fold. Further, the “% Internalization relative to Control I” value in assay [2] came out at 169%. For the same molecule, in assay [3], the “IC50 of Blocking 5 nM PRL [M] (STAT5-Luc reporter, HEK293/hPRLR/STAT5-Luc cells)” value was found to be 7.68e-10 M and the “Percent Blocking at 100 nM Antibody” value came out at 100%. Moreover, in assay [4], binding was put at a Kd of 2.2 nM, the “T 1/2” value was determined as 12.4 min, the dissociation rate constant (koff) stood at 0.000933 s⁻¹ and the kon stood at 424000 M⁻¹ s⁻¹. Further, in assay [5], the dissociation constant Kd stood at 0.107 nM, the “T 1/2” value is 119 min, the koff came out at 9.73e-05 s⁻¹ and the on-rate (kon) was 907000 M⁻¹ s⁻¹. In assay [6], the dissociation constant (Kd) turned out to be 4.54 nM, the “T 1/2” value was determined as 7.1 min, the koff is 0.00162 s⁻¹ and the on-rate constant (kon) worked out at 356000 M⁻¹ s⁻¹. The “% Total Binding relative to Control I” value in assay [7] worked out at 159%.

B4: H1H6774P (antibody, human IgG1, V domains shown)
VH: EVQLVESGGGLAQPGGSLRLSCVASGFTFSTYWMSWVRQAPGKGLDWVGNIKQDGSEQNYVDSVRGRFTISRDNAKNSLFLQMNSLRAEDTGVYYCATLLTKGDYWGQGTLVTVSS
VL: DIQMTQSPSSLSASVGDSVTITCRASQDISNYLDWFQQKPGKAPKSLIYAASILQGGVPSRFSGSGYGTDFTLTISSLQPEDFATYYCRQYKTYPFTFGPGTKVDIK
notes: human IgG1 Fc (H1H)
Consider B4, for which, in assay [1], the “FACS Cell Binding (Fold Above Background)” value is 39 fold. The “% Internalization relative to Control I” value in assay [2] came to 162%. Moreover, the “Percent Blocking at 100 nM Antibody” value in assay [3] was 0%. In assay [4], binding was put at a Kd of 2.95 nM, the “T 1/2” value was 4 min, the koff turned out to be 0.00317 s⁻¹ and the kon was 1.07e+06 M⁻¹ s⁻¹. Moreover, in assay [5], binding was put at a Kd of 0.138 nM, the “T 1/2” value amounted to 60 min, the koff amounted to 0.000194 s⁻¹ and the on-rate constant (kon) was found to be 1.41e+06 M⁻¹ s⁻¹. In assay [6], the equilibrium dissociation constant (Kd) is 5 nM, the “T 1/2” value came out at 3 min, the koff was 0.00361 s⁻¹ and the kon was 723000 M⁻¹ s⁻¹. Also, in assay [7], the “% Total Binding relative to Control I” value is 174%.

B5: H1H6792P (antibody, human IgG1, V domains shown)
VH: EVQLVESGGGLVQPGRSLRLSCAASGFTLDDHAVHWVRQAPGKGLEWVSGISWNSVYIDYADSVKGRFTIFRDNAKNSLYLQMNSLRAEDTAFYYCARDIEGARDYWGQGTLVTVSS
VL: DIQMTQSPSSLSASVGDRVTITCRASQGIRNDLGWYQQKPGKAPKRLIYAASSLQSGVPSRFSGSGYGTEFTLTISSLQPEDFAPYYCLQHNSYPLTFGGGTKVEIK
notes: human IgG1 Fc (H1H)
Take B5: the “FACS Cell Binding (Fold Above Background)” value in assay [1] is 37 fold. The “% Internalization relative to Control I” value in assay [2] came out at 156%. In addition, in assay [3], the “IC50 of Blocking 5 nM PRL [M] (STAT5-Luc reporter, HEK293/hPRLR/STAT5-Luc cells)” value came to 5.7e-10 M and the “Percent Blocking at 100 nM Antibody” value was determined as 100%. In assay [4], the dissociation constant Kd is 5.27 nM, the “T 1/2” value was found to be 5 min, the koff was found to be 0.00229 s⁻¹ and the kon worked out at 435000 M⁻¹ s⁻¹. Besides, in assay [5], the Kd was determined as 0.352 nM, the “T 1/2” value stood at 66 min, the koff was found to be 0.000176 s⁻¹ and the kon came to 499000 M⁻¹ s⁻¹. Further, in assay [6], the equilibrium dissociation constant (Kd) was determined as 9.37 nM, the “T 1/2” value came out at 4 min, the koff is 0.00286 s⁻¹ and the association rate constant (kon) turned out to be 305000 M⁻¹ s⁻¹. Also, the “% Total Binding relative to Control I” value in assay [7] worked out at 111%.
